Experimental data from patent publication US20080274112A1, “Nogo Receptor Antagonists” (priority 2003, published 2008).
“Also recorded” adds a separate entry of the source.

Tests used:
Nogo66 + sNogoR344-Fc = target: T1, Nogo66 + sNogoR344-Fc (Rattus norvegicus, UniProt Q99M75, A303T/C287S/C43R/E284G/T53A); assay: mAb/Fab inhibition of Nogo66 binding to sNogoR344-Fc (ELISA)
T1 construct: amino acid residues 26-344 of rat Nogo receptor-1; made in house
T1 sequence (Q99M75 26-344 C43R/T53A/E284G/C287S/A303T): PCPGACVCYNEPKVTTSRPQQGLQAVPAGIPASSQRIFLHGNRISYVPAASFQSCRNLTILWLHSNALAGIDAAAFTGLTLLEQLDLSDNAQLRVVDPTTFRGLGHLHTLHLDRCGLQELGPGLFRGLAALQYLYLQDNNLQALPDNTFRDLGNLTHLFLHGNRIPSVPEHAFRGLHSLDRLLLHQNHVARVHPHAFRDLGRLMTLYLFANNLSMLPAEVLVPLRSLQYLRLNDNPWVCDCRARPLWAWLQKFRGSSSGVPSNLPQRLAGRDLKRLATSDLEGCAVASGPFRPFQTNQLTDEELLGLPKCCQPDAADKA
Procedure: (§1) 0.5 μg of a soluble Nogo receptor-1 fusion protein comprising amino acid residues 26-344 of rat Nogo receptor-1 and the hinge and Fc region of the rat IgG1 molecule (sNogoR344-Fc) produced as described below was immobilized on 250 μg of protein-A- or wheatgerm agglutinin-conjugated SPA beads (Amersham Pharmacia Biotech) for 2 hours at 25° C. SPA beads coupled with Fc-sNogoR-1, anti-Nogo receptor-1 mAb and 1 μl ^125I-Nogo66 (Amersham, 2000 Ci/mmol, 1 nM) in 50 μl of the HEPES-buffered incubation medium (10 mM HEPES, pH 7.4, 0.1% bovine serum albumin, 0.1% ovalbumin, 2 mM MgCl2, 2 mM CaCl2 and protease inhibitors) was added to each sample well. After 16 hours, radioactivity was measured in quadruplicate samples using a TopCount® (Packard). IC50 values were calculated from a curve-fit analysis (FIG. 3) (PRISM, GraphPad Software, NJ). In some experiments, we also used AP-ligand conjugates (e.g. AP-Nogo66) and detected binding by monitoring alkaline phosphatase activity. We also assayed the ability of the mAbs to block binding of the ligands MAG-Fc and AP-OM-gp to Nogo receptor-1.
(§2) The calculated IC50 for Nogo66 for 7E11 and 1H2 were 400 nM and 60 nM, respectively. The data from ELISAs monitoring mAb-mediated inhibition of binding of the three ligands to Nogo receptor-1 are summarized in Table 6.
(§3) We also performed ELISA binding assays using the Fab-phage 14D5.

OM-gp + sNogoR344-Fc = target: T2, OM-gp + sNogoR344-Fc (Rattus norvegicus, UniProt Q99M75, A303T/C287S/C43R/E284G/T53A); assay: mAb/Fab inhibition of OM-gp binding to sNogoR344-Fc (ELISA)
T2 construct: amino acid residues 26-344 of rat Nogo receptor-1; made in house
T2 sequence (Q99M75 26-344 C43R/T53A/E284G/C287S/A303T): T1 sequence (Q99M75 26-344 C43R/T53A/E284G/C287S/A303T)
Procedure: as §1, §2, §3

human NgR1 = target: T3, human NgR1 (Homo sapiens, UniProt Q9BZR6); assay: Antibody binding to human Nogo receptor-1
T3 sequence (Q9BZR6 27-447): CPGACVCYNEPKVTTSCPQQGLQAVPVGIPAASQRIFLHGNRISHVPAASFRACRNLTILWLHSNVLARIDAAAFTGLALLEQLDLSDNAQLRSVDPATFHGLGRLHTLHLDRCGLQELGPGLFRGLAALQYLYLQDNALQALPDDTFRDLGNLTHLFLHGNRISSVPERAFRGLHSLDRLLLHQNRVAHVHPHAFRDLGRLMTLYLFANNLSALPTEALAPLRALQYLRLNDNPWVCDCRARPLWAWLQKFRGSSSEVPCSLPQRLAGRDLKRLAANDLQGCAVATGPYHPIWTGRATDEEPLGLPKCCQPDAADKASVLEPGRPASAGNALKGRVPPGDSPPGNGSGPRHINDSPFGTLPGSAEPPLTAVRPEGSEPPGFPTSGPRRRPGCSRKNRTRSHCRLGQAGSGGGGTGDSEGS

mouse NgR3 = target: T4, mouse NgR3 (Mus musculus, UniProt Q8K0S5); assay: Antibody binding to mouse Nogo receptor-3; conditions: species not stated
T4 sequence (Q8K0S5 25-424): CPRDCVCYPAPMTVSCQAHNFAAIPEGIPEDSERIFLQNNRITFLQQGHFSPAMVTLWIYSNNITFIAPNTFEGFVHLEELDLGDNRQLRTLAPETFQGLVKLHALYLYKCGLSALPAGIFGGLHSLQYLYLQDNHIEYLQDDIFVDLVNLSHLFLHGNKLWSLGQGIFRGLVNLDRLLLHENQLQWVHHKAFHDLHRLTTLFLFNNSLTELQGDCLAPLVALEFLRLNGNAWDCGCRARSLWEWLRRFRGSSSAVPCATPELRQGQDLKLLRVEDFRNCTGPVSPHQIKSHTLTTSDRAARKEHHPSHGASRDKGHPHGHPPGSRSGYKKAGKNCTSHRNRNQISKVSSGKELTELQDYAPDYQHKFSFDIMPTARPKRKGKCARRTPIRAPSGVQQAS

- inhibition of binding of Nogo66 to sNogoR344-Fc (Nogo66 + sNogoR344-Fc): inhibited binding
- EC50 (Nogo66 + sNogoR344-Fc; curve-fit analysis): 1700 nM
- inhibition of binding of OM-gp to sNogoR344-Fc (OM-gp + sNogoR344-Fc): inhibited binding
- EC50 (OM-gp + sNogoR344-Fc; curve-fit analysis): 150 nM
- binding to human NgR1 (human NgR1): bound; also recorded: binds well
- binding to NgR3 (mouse NgR3): does not bind well
B1: 7E11: murine monoclonal anti-Nogo receptor-1 antibody, IgG1 kappa, ATCC PTA-4587; immunogen rat Nogo receptor-1 residues 110-125 (antibody, V domains shown)
VH: VQLQESGAELVMPGASVKMSCKASGYTFTDYWMHWVKQRPGQGLEWIGAIDPSDSYSSYNQNFKGKATLTVDGSSSTAYMQLSSLTSEDSAVYYCARRITEAGAWFAYWGQGTTVT
VL: DVVMTQTPLSLPVSLGDQASISCRSSQSLVHSNGNTYLHWYLQKPGQSPKLLIYKVSNRFSGVPDRFSGSGSGTDFTLKISRVDAEDLGVYFCSQSTHVPFTFGGGTKLEIKRADAAPTVSISHH
